From IntAct's records for PubMed 35512704

B1: Mothers against decapentaplegic homolog 4 (Homo sapiens), Q13485 (parent)
chain: MDNMSITNTPTSNDACLSIVHSLMCHRQGGESETFAKRAIESLVKKLKEKKDELDSLITAITTNGAHPSKCVTIQRTLDGRLQVAGRKGFPHVIYARLWRWPDLHKNELKHVKYCQYAFDLKCDSVCVNPYHYERVVSPGIDLSGLTLQSNAPSSMMVKDEYVHDFEGQPSLSTEGHSIQTIQHPPSNRASTETYSTPALLAPSESNATSTANFPNIPVASTSQPASILGGSHSEGLLQIASGPQPGQQQNGFTGQPATYHHNSTTTWTGSRTAPYTPNLPHHQNGHLQHHPPMPPHPGHYWPVHNELAFQPPISNHPAPEYWCSIAYFEMDVQVGETFKVPSSCPIVTVDGYVDPSGGDRFCLGQLSNVHRTEAIERARLHIGKGVQLECKGEGDVWVRCLSDHAVFVQSYYLDREAGRAPGDAVHKIYPSAYIKVFDLRQCHRQMQQQAATAQAAAAAQAAAVAGNIPGPGSVGGIAPAISLSAAAGIGVDDLRRLCILRMSFVKGWGPDYPRQSIKETPCWIEIHLHRALQLLDEVLHTMPIADPQPLD

Variants of: B1
Conditions: with grm1_human GRM1, Q13255

Question: For R361C, which “effect of a mutation on the interaction” value is on record?
Answer: The value was “with no effect”.

Variants of: B1
Conditions: with grm3_human GRM3, Q14832

Question: For R361C, which “effect of a mutation on the interaction” value is on record?
Answer: The value was “with no effect”.

Variants of: B1
Conditions: with gsk3a_human GSK3A

Question: How did the “effect of a mutation on the interaction” value turn out when R361C was run?
Answer: The value was “with no effect”.

Variants of: B1
Conditions: with hdac1_human HDAC1, Q13547
Chain of hdac1_human HDAC1, Q13547 (Q13547 whole entry): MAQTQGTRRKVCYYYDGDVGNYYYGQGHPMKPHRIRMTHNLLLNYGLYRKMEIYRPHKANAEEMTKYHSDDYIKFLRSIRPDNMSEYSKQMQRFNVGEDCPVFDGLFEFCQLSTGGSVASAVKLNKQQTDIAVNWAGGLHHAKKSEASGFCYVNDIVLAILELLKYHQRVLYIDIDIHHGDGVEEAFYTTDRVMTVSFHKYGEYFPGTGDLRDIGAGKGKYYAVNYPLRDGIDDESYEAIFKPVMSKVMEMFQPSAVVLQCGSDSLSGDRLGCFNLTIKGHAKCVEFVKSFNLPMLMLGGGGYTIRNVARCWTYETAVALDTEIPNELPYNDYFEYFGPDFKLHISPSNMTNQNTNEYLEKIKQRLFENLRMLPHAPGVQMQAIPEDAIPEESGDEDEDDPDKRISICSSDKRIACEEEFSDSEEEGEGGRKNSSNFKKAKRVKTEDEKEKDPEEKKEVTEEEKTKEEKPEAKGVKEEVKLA

Question: For R361C, which “effect of a mutation on the interaction” value is on record?
Answer: Its value is “with no effect”.

Variants of: B1
Conditions: with hdac3_human HDAC3, O15379

Question: How did the “effect of a mutation on the interaction” value turn out when R361C was run?
Answer: The value was “with no effect”.

Variants of: B1
Conditions: with hgf_human HGF

Question: With R361C as the variant, how does the “effect of a mutation on the interaction” value read?
Answer: Its value is “with no effect”.

Variants of: B1
Conditions: with h31_human H3C1, P68431

Question: How did the “effect of a mutation on the interaction” value turn out when R361C was run?
Answer: The value was “with no effect”.

Variants of: B1
Conditions: with hlab_human HLA-B

Question: With R361C as the variant, how does the “effect of a mutation on the interaction” value read?
Answer: Its value is “with no effect”.

Variants of: B1
Conditions: with hnf1a_human HNF1A

Question: With R361C as the variant, how does the “effect of a mutation on the interaction” value read?
Answer: Its value is “with no effect”.

Variants of: B1
Conditions: with rash_human HRAS

Question: For R361C, which “effect of a mutation on the interaction” value is on record?
Answer: The value was “with no effect”.

Variants of: B1
Conditions: with hs90a_human HSP90AA1, P07900

Question: How did the “effect of a mutation on the interaction” value turn out when R361C was run?
Answer: Its value is “with no effect”.

Variants of: B1
Conditions: with il7ra_human IL7R

Question: Which “effect of a mutation on the interaction” value does the source give for R361C here?
Answer: Its value is “with no effect”.

Variants of: B1
Conditions: with irf6_human IRF6, O14896

Question: Which “effect of a mutation on the interaction” value does the source give for R361C here?
Answer: Its value is “with no effect”.

Variants of: B1
Conditions: with irs1_human IRS1, P35568
Chain of irs1_human IRS1, P35568 (P35568 whole entry): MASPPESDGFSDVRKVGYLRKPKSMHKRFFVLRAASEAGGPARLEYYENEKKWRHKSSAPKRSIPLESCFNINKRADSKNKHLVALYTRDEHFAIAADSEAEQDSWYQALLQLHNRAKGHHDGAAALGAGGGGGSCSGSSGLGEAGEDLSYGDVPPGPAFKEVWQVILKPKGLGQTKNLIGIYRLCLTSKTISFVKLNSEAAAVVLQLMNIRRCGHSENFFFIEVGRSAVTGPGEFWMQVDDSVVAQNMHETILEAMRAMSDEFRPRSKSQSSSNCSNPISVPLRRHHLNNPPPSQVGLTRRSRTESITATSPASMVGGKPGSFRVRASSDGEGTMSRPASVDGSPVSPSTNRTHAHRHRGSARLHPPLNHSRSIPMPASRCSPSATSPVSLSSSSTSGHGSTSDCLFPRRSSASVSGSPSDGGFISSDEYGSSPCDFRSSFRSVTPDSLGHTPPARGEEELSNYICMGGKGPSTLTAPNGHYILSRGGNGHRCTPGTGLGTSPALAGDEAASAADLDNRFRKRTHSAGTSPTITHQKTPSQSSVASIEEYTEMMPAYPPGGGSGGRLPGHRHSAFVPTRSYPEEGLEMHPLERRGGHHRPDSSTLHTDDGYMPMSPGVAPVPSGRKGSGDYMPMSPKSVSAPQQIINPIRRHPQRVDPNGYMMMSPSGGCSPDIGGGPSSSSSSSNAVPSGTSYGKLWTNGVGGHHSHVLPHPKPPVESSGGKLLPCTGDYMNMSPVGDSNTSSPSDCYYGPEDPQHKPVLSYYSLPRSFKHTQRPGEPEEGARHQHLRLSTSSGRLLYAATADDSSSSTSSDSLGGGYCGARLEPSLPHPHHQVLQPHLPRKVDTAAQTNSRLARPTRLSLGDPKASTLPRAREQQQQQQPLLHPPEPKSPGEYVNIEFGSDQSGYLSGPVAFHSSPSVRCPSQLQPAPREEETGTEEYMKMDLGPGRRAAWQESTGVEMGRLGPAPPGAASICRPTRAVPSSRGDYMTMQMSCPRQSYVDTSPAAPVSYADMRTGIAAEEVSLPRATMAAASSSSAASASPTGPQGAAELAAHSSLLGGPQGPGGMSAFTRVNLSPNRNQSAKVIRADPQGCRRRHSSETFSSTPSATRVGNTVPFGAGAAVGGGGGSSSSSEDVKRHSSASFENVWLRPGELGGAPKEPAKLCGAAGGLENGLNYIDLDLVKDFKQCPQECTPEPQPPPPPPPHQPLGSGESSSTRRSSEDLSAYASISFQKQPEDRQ

Question: How did the “effect of a mutation on the interaction” value turn out when R361C was run?
Answer: Its value is “with no effect”.

Variants of: B1
Conditions: with jak1_human JAK1, P23458

Question: How did the “effect of a mutation on the interaction” value turn out when R361C was run?
Answer: The value was “with no effect”.

Variants of: B1
Conditions: with jak3_human JAK3, P52333

Question: R361C was tested. Which “effect of a mutation on the interaction” value did it give?
Answer: The value was “with no effect”.

Variants of: B1
Conditions: with kdm5c_human KDM5C

Question: With R361C as the variant, how does the “effect of a mutation on the interaction” value read?
Answer: The value was “with no effect”.

Variants of: B1
Conditions: with vgfr2_human KDR

Question: Which “effect of a mutation on the interaction” value does the source give for R361C here?
Answer: The value was “with no effect”.

Variants of: B1
Conditions: with keap1_human KEAP1, Q14145

Question: Which “effect of a mutation on the interaction” value does the source give for R361C here?
Answer: The value was “with no effect”.

Variants of: B1
Conditions: with klf4_human KLF4, O43474
Chain of klf4_human KLF4, O43474 (O43474 whole entry): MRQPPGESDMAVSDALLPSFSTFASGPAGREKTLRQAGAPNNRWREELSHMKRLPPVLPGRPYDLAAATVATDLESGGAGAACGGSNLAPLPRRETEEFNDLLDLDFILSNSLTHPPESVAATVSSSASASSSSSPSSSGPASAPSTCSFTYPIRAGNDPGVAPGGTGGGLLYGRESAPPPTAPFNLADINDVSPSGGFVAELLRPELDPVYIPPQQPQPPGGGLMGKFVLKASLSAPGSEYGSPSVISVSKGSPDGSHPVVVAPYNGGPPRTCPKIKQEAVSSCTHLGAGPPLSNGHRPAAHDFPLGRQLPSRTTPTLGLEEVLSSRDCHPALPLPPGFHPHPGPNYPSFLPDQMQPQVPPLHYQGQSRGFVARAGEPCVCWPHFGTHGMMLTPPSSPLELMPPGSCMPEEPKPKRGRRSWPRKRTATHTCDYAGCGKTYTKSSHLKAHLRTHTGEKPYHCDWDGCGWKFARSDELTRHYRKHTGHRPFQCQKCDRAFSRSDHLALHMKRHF

Question: How did the “effect of a mutation on the interaction” value turn out when R361C was run?
Answer: The value was “with no effect”.

Variants of: B1
Conditions: with maga6_human MAGEA6, P43360

Question: Which “effect of a mutation on the interaction” value does the source give for R361C here?
Answer: Its value is “with no effect”.

Variants of: B1
Conditions: with mp2k7_human MAP2K7, O14733

Question: With R361C as the variant, how does the “effect of a mutation on the interaction” value read?
Answer: The value was “with no effect”.

Variants of: B1
Conditions: with m3k1_human MAP3K1, Q13233

Question: With R361C as the variant, how does the “effect of a mutation on the interaction” value read?
Answer: Its value is “with no effect”.

Variants of: B1
Conditions: with mk10_human MAPK10, P53779

Question: How did the “effect of a mutation on the interaction” value turn out when R361C was run?
Answer: The value was “with no effect”.

Variants of: B1
Conditions: with mk14_human MAPK14, Q16539

Question: How did the “effect of a mutation on the interaction” value turn out when R361C was run?
Answer: The value was “with no effect”.

Variants of: B1
Conditions: with mk03_human MAPK3, P27361

Question: How did the “effect of a mutation on the interaction” value turn out when R361C was run?
Answer: The value was “with no effect”.

Variants of: B1
Conditions: with mk04_human MAPK4, P31152

Question: With R361C as the variant, how does the “effect of a mutation on the interaction” value read?
Answer: Its value is “with no effect”.

Variants of: B1
Conditions: with mk06_human MAPK6, Q16659

Question: With R361C as the variant, how does the “effect of a mutation on the interaction” value read?
Answer: The value was “with no effect”.

Variants of: B1
Conditions: with mcl1_human MCL1, Q07820

Question: With R361C as the variant, how does the “effect of a mutation on the interaction” value read?
Answer: Its value is “with no effect”.

Variants of: B1
Conditions: with mitf_human MITF

Question: Which “effect of a mutation on the interaction” value does the source give for R361C here?
Answer: The value was “with no effect”.

Variants of: B1
Conditions: with myc_human MYC

Question: With R361C as the variant, how does the “effect of a mutation on the interaction” value read?
Answer: The value was “with no effect”.

Variants of: B1
Conditions: with nf1_human NF1, P21359

Question: For R361C, which “effect of a mutation on the interaction” value is on record?
Answer: The value was “with no effect”.

Variants of: B1
Conditions: with merl_human NF2, P35240

Question: R361C was tested. Which “effect of a mutation on the interaction” value did it give?
Answer: Its value is “with no effect”.

Variants of: B1
Conditions: with nfic_human NFIC

Question: For R361C, which “effect of a mutation on the interaction” value is on record?
Answer: The value was “with no effect”.

Variants of: B1
Conditions: with notc2_human NOTCH2, Q04721

Question: For R361C, which “effect of a mutation on the interaction” value is on record?
Answer: Its value is “with no effect”.

Variants of: B1
Conditions: with pak3_human PAK3, O75914

Question: For R361C, which “effect of a mutation on the interaction” value is on record?
Answer: The value was “with no effect”.

Variants of: B1
Conditions: with pax5_human PAX5, Q02548

Question: R361C was tested. Which “effect of a mutation on the interaction” value did it give?
Answer: Its value is “with no effect”.

Variants of: B1
Conditions: with pax9_human PAX9, P55771

Question: How did the “effect of a mutation on the interaction” value turn out when R361C was run?
Answer: The value was “with no effect”.

Variants of: B1
Conditions: with pb1_human PBRM1, Q86U86

Question: R361C was tested. Which “effect of a mutation on the interaction” value did it give?
Answer: The value was “with no effect”.

Variants of: B1
Conditions: with pcbp1_human PCBP1, Q15365

Question: How did the “effect of a mutation on the interaction” value turn out when R361C was run?
Answer: The value was “with no effect”.

Variants of: B1
Conditions: with pgfra_human PDGFRA

Question: How did the “effect of a mutation on the interaction” value turn out when R361C was run?
Answer: The value was “with no effect”.

Variants of: B1
Conditions: with pgfrb_human PDGFRB

Question: How did the “effect of a mutation on the interaction” value turn out when R361C was run?
Answer: Its value is “with no effect”.

Variants of: B1
Conditions: with pdk1_human PDK1, Q15118

Question: Which “effect of a mutation on the interaction” value does the source give for R361C here?
Answer: The value was “with no effect”.

Variants of: B1
Conditions: with PIK3C2B

Question: R361C was tested. Which “effect of a mutation on the interaction” value did it give?
Answer: Its value is “with no effect”.

Variants of: B1
Conditions: with pk3c3_human PIK3C3, Q8NEB9

Question: R361C was tested. Which “effect of a mutation on the interaction” value did it give?
Answer: Its value is “with no effect”.

Variants of: B1
Conditions: with pk3ca_human PIK3CA

Question: Which “effect of a mutation on the interaction” value does the source give for R361C here?
Answer: Its value is “with no effect”.

Variants of: B1
Conditions: with pk3cg_human PIK3CG

Question: For R361C, which “effect of a mutation on the interaction” value is on record?
Answer: The value was “with no effect”.

Variants of: B1
Conditions: with p85a_human PIK3R1, P27986

Question: R361C was tested. Which “effect of a mutation on the interaction” value did it give?
Answer: The value was “with no effect”.

Variants of: B1
Conditions: with p85b_human PIK3R2, O00459

Question: For R361C, which “effect of a mutation on the interaction” value is on record?
Answer: The value was “with no effect”.

Variants of: B1
Conditions: with dpod1_human POLD1, P28340
Chain of dpod1_human POLD1, P28340 (P28340 whole entry): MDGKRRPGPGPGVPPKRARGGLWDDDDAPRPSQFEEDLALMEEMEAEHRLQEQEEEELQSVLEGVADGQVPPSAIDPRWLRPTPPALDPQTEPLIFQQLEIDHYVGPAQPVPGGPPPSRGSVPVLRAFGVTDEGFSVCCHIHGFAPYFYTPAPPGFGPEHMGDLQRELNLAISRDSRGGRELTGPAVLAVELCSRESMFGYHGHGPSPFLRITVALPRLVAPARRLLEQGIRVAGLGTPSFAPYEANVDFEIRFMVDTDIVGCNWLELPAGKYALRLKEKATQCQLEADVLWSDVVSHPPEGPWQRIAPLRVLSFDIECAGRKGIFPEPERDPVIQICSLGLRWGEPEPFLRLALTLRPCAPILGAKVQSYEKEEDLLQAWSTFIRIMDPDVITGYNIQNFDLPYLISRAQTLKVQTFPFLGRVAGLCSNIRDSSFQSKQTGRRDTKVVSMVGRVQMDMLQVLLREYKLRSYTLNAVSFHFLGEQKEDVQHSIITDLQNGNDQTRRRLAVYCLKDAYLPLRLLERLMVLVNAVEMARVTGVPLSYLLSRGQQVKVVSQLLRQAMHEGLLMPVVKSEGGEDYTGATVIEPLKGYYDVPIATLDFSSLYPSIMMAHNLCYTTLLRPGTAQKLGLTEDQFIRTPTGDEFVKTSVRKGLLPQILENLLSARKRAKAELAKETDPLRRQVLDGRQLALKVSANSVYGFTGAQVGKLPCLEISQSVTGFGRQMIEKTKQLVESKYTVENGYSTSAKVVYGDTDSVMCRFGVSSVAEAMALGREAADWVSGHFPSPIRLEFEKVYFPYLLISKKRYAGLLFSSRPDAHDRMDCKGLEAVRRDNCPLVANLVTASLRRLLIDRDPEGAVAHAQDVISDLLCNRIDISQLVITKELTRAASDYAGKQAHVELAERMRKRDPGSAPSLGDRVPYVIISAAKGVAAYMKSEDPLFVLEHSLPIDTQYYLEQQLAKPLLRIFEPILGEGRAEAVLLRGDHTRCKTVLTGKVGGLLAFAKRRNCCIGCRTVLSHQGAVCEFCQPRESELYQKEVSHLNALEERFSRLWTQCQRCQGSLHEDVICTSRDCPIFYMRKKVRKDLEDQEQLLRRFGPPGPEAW

Question: Which “effect of a mutation on the interaction” value does the source give for R361C here?
Answer: The value was “with no effect”.

Variants of: B1
Conditions: with dpoe1_human POLE

Question: R361C was tested. Which “effect of a mutation on the interaction” value did it give?
Answer: The value was “with no effect”.

Variants of: B1
Conditions: with lipa1_human PPFIA1, Q13136
Chain of lipa1_human PPFIA1, Q13136 (Q13136 whole entry): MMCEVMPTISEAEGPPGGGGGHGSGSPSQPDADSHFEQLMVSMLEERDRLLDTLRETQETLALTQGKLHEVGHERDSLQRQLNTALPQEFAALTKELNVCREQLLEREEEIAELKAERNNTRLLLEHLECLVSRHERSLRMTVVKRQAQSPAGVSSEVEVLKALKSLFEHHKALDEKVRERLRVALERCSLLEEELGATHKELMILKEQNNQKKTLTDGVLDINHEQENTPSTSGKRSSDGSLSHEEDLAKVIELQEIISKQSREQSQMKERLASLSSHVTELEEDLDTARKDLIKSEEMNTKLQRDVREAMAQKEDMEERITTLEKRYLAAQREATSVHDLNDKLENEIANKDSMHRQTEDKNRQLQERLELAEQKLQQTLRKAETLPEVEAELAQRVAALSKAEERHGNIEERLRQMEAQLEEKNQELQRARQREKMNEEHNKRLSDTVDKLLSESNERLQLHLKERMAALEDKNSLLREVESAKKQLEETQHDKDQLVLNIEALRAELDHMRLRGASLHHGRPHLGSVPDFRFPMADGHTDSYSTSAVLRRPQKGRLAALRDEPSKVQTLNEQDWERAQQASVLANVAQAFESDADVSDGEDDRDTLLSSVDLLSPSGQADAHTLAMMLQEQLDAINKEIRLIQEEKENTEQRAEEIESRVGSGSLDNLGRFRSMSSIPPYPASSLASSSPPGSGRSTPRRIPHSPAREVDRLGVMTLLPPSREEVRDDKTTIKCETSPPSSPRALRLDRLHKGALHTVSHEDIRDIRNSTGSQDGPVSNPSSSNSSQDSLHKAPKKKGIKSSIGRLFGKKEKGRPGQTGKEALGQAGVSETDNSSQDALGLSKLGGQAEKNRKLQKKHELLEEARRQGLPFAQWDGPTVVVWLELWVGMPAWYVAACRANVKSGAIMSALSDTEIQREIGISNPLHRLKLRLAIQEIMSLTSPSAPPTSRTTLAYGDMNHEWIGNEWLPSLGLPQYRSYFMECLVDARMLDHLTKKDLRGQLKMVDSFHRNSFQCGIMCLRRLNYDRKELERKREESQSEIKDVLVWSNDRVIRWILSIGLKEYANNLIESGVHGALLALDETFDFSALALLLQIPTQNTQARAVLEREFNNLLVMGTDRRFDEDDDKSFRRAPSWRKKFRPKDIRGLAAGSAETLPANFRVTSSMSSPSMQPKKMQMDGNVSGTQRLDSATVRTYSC

Question: R361C was tested. Which “effect of a mutation on the interaction” value did it give?
Answer: The value was “with no effect”.

Variants of: B1
Conditions: with 2aaa_human PPP2R1A

Question: R361C was tested. Which “effect of a mutation on the interaction” value did it give?
Answer: The value was “with no effect”.

Variants of: B1
Conditions: with prdm1_human PRDM1, O75626

Question: R361C was tested. Which “effect of a mutation on the interaction” value did it give?
Answer: Its value is “with no effect”.

Variants of: B1
Conditions: with aapk2_human PRKAA2, P54646

Question: How did the “effect of a mutation on the interaction” value turn out when R361C was run?
Answer: The value was “with no effect”.

Variants of: B1
Conditions: with aakb2_human PRKAB2, O43741

Question: With R361C as the variant, how does the “effect of a mutation on the interaction” value read?
Answer: Its value is “with no effect”.

Variants of: B1
Conditions: with prss8_human PRSS8, Q16651
Chain of prss8_human PRSS8, Q16651 (Q16651 whole entry, looked up): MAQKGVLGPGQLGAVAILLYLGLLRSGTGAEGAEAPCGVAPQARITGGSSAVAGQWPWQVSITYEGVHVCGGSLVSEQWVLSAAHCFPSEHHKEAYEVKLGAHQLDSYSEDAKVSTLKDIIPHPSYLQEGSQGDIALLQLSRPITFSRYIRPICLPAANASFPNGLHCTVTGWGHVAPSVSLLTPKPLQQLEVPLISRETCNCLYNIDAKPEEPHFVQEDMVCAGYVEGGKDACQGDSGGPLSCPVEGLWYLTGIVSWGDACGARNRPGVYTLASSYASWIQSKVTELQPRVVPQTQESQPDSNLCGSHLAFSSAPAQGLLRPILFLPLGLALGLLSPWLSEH

Question: R361C was tested. Which “effect of a mutation on the interaction” value did it give?
Answer: The value was “with no effect”.

Variants of: B1
Conditions: with ptk6_human PTK6, Q13882

Question: With R361C as the variant, how does the “effect of a mutation on the interaction” value read?
Answer: Its value is “with no effect”.

Variants of: B1
Conditions: with tf65_human RELA

Question: With R361C as the variant, how does the “effect of a mutation on the interaction” value read?
Answer: Its value is “with no effect”.

Variants of: B1
Conditions: with rnf43_human RNF43, Q68DV7

Question: R361C was tested. Which “effect of a mutation on the interaction” value did it give?
Answer: The value was “with no effect”.
